Experimental data published in patent US20210221867A1, “Compounds Capable of Binding to Melanocortin 4 Receptor” (Novo Nordisk A/S, priority 2018, published 2021).
One block for each binder: values may come before it. Positions of bridges follow the written chain, without caps; N, C: chain ends. Non-standard residues stand in square brackets, D forms with d. Nle = CCCC[C@H](N)C(=O)O

Legend:
[1] = target: human MC1 receptor (human) (UniProt Q01726); test: cell-based or functional assay
[2] = target: human MC4 receptor (human) (UniProt P32245); test: cell-based or functional assay
Sequence of human MC4 receptor (human) (P32245 whole entry): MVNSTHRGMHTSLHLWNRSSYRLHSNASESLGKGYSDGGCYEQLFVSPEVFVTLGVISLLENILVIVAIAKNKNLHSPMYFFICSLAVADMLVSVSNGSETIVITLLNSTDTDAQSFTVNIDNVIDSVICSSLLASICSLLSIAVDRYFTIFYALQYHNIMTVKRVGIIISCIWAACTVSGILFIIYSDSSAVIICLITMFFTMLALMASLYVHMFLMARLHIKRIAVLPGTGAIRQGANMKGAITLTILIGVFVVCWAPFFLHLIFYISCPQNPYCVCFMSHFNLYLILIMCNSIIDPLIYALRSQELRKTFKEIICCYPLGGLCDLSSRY

[3] = target: human MC1 receptor (human) (UniProt Q01726); test: SPA competition binding, displacement of 125I-NDP-α-MSH, BHK membranes with human MC1R
[4] = target: human MC4 receptor (human) (UniProt P32245); test: SPA competition binding, displacement of 125I-NDP-α-MSH, BHK membranes with human MC4R

Sequence of human MC1 receptor (human) (Q01726 whole entry): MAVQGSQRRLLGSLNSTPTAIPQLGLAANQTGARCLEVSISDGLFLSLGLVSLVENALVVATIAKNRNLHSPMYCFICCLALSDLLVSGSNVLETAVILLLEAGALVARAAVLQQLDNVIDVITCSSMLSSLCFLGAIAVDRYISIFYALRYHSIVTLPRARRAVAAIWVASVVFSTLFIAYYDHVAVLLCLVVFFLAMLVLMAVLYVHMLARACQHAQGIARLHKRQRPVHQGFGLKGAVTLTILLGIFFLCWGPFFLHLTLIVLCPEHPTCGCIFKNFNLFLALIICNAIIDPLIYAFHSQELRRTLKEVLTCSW

- MC1R cAMP EC50 [1]: 126 nM
- MC4R cAMP EC50 [2]: 0.32 nM
- IC50 [3]: 44.1 nM
- IC50 [4]: 0.35 nM
B1: Ac-D-Arg-c[Cys-Pro-His-D-Phe-His-Trp-Cys]-Pro-Pro-D-Arg-Glu-Nle-D-Arg-D-Arg-NH2 (peptide)
peptide: Ac-[dR]CPH[dF]HWCPP[dR]E[Nle][dR][dR]-NH2
modifications: disulfide 2-8
SMILES: CCCC[C@H](NC(=O)[C@H](CCC(=O)O)NC(=O)[C@@H](CCCNC(=N)N)NC(=O)[C@@H]1CCCN1C(=O)[C@@H]1CCCN1C(=O)[C@@H]1CSSC[C@H](NC(=O)[C@@H](CCCNC(=N)N)NC(C)=O)C(=O)N2CCC[C@H]2C(=O)N[C@@H](Cc2c[nH]cn2)C(=O)N[C@H](Cc2ccccc2)C(=O)N[C@@H](Cc2c[nH]cn2)C(=O)N[C@@H](Cc2c[nH]c3ccccc23)C(=O)N1)C(=O)N[C@H](CCCNC(=N)N)C(=O)N[C@H](CCCNC(=N)N)C(N)=O

- MC4R cAMP EC50 [2]: 0.16 nM
- IC50 [3]: 138 nM
- IC50 [4]: 0.27 nM
B2: Ac-c[Cys-Pro-His-D-Phe-His-Trp-Cys]-Pro-Pro-D-Arg-Glu-Nle-D-Arg-D-Arg-D-Arg-NH2 (peptide)
peptide: Ac-CPH[dF]HWCPP[dR]E[Nle][dR][dR][dR]-NH2
modifications: disulfide 1-7
SMILES: CCCC[C@H](NC(=O)[C@H](CCC(=O)O)NC(=O)[C@@H](CCCNC(=N)N)NC(=O)[C@@H]1CCCN1C(=O)[C@@H]1CCCN1C(=O)[C@@H]1CSSC[C@H](NC(C)=O)C(=O)N2CCC[C@H]2C(=O)N[C@@H](Cc2c[nH]cn2)C(=O)N[C@H](Cc2ccccc2)C(=O)N[C@@H](Cc2c[nH]cn2)C(=O)N[C@@H](Cc2c[nH]c3ccccc23)C(=O)N1)C(=O)N[C@H](CCCNC(=N)N)C(=O)N[C@H](CCCNC(=N)N)C(=O)N[C@H](CCCNC(=N)N)C(N)=O

- MC1R cAMP EC50 [1]: 179 nM
- MC4R cAMP EC50 [2]: 0.19 nM
- IC50 [3]: 69 nM
- IC50 [4]: 0.39 nM
B3: Ac-D-Arg-c[Cys-Pro-His-D-Phe-His-Trp-Cys]-Pro-Pro-D-Arg-D-Arg-NH2 (peptide)
peptide: Ac-[dR]CPH[dF]HWCPP[dR][dR]-NH2
modifications: disulfide 2-8
SMILES: CC(=O)N[C@H](CCCNC(=N)N)C(=O)N[C@H]1CSSC[C@@H](C(=O)N2CCC[C@H]2C(=O)N2CCC[C@H]2C(=O)N[C@H](CCCNC(=N)N)C(=O)N[C@H](CCCNC(=N)N)C(N)=O)NC(=O)[C@H](Cc2c[nH]c3ccccc23)NC(=O)[C@H](Cc2c[nH]cn2)NC(=O)[C@@H](Cc2ccccc2)NC(=O)[C@H](Cc2c[nH]cn2)NC(=O)[C@@H]2CCCN2C1=O
